{
  "source": "patent US20070142277",
  "molecular_target": "T1, fluorogenic APP-based peptide MCA-SEVNLDAEFK(DNP)-CONH2",
  "T1 chain": "SEVNLDAEFK",
  "data": [
    {"protein": "BACE455 (protein) ETDEEPEEPGRRGSFVEMVDNLRGKSGQGYYVEMTVGSPPQTLNILVDTGSSNFAVGAAPHPFLHRYYQRQLSSTYRDLRKGVYVPYTQGKWEGELGTDLVSIPHGPNVTVRANIAAITESDKFFINGSNWEGILGLAYAEIARIIGGIDHSLYTGSLWYTPIRREWYYEVIIVRVEINGQDLKMDCKEYNYDKSIVDSGTTNLRLPKKVFEAAVKSIKAASSTEKFPDGFWLGEQLVCWQAGTTPWNIFPVISLYLMGEVTNQSFRITILPQQYLRPVEDVATSQDDCYKFAISQSSTGTVMGAVIMEGFYVVFDRARKRIGFAVSACHVHDEFRTAAVEGPFVTLDMEDCGYNIPQTDESTLMTIAYVMAAICALFMLPLCLMVCQWRCLRCLRQQHDDFADDISLLK", "values": [
      {"measurement": "BACE activity over time: mean fluorescence signal of Substrate V cleavage by HEK293 membrane extract, 15 min (mean fluorescence signal)", "value": 125},
      {"measurement": "BACE activity over time: mean fluorescence signal of Substrate V cleavage by HEK293 membrane extract, 60 min (mean fluorescence signal)", "value": 195},
      {"measurement": "BACE activity over time: mean fluorescence signal of Substrate V cleavage by HEK293 membrane extract, 120 min (mean fluorescence signal)", "value": 228},
      {"measurement": "BACE activity over time: mean fluorescence signal of Substrate V cleavage by HEK293 membrane extract, 240 min (mean fluorescence signal)", "value": 239}
    ]}
  ]
}
